Measurements from patent US20230091471A1 (APELLIS PHARMACEUTICALS, published 2023).

Legend:
[1] = target: T1, human complement component C3 (human, UniProt P01024 23-1663); test: cell-based or functional assay
[2] = target: T1, human complement component C3; test: cell-based or functional assay; remark: listed apart in the source

B1: CA28-2GS-BF (peptide)
peptide: ICVWQDWGAHRCTK
modifications: not fully specified; N-terminal acetyl; 1-methyl-Trp at 4; disulfide Cys2-Cys12; AEEAc after Thr13; Lys side chain coupled to one end of a bifunctional linear 40 kD PEG of the GS type (NHS-OCO(CH2)3COO-PEG-CO(CH2)3COO-NHS); C-terminal …
Q1 (Type III cells with high C3d deposition) % Parent, modified Ham's assay, 50 ug/ml [1]: 0.01% | Q2 (Type I and II cells with high C3d deposition) % Parent, modified Ham's assay, 50 ug/ml [1]: 0.01% | Q3 (Type III cells without significant C3d deposition) % Parent, modified Ham's assay, 50 ug/ml [1]: 61.5% | Q4 (Type I and II cells without significant C3d deposition) % Parent, modified Ham's assay, 50 ug/ml [1]: 38.5%

B2: CA28-AEEAc-Lys(mPEG40K-carbonyl) (peptide)
peptide: ICVWQDWGAHRCTK
modifications: not fully specified; N-terminal acetyl; 1-methyl-Trp at 4; disulfide Cys2-Cys12; AEEAc after Thr13; Lys15 side chain coupled to linear 40 kD mPEG (NOF SUNBRIGHT ME-400TS); C-terminal amide
IC50 (read off the curve); classical pathway C3b deposition ELISA, human plasma [2]: ~600 nM

B3: CA28-AEEAc-Lys(mPEG40K-succinyl) (peptide)
peptide: ICVWQDWGAHRCTK
modifications: not fully specified; N-terminal acetyl; 1-methyl-Trp at 4; disulfide Cys2-Cys12; AEEAc after Thr13; Lys15 side chain coupled to linear 40 kD mPEG (NOF SUNBRIGHT ME-400CS); C-terminal amide
IC50 (read off the curve); classical pathway C3b deposition ELISA, human plasma [2]: ~600 nM

B4: CA28-AEEAc-Lys-(PEG40k) (peptide)
peptide: ICVWQDWGAHRCTK
modifications: not fully specified; N-terminal acetyl; 1-methyl-Trp at 4; disulfide Cys2-Cys12; AEEAc after Thr13; Lys15 side chain coupled to linear 40 kD mPEG (NOF SUNBRIGHT ME-400GS); C-terminal amide
IC50 (read off the curve); classical pathway C3b deposition ELISA, human plasma [2]: ~600 nM

B5: CA28-AEEAc-Lys(mPEG40K-hexanoyl) (peptide)
peptide: ICVWQDWGAHRCTK
modifications: not fully specified; N-terminal acetyl; 1-methyl-Trp at 4; disulfide Cys2-Cys12; AEEAc after Thr13; Lys15 side chain coupled to linear 40 kD mPEG (NOF SUNBRIGHT ME-400HS); C-terminal amide
IC50 (read off the curve); classical pathway C3b deposition ELISA, human plasma [2]: ~600 nM
